Laboratory results taken from paper doi:10.1101/2024.10.30.620795 (2024).

T1: A*02/YLQ peptide on A*02/YLQ (human)
T1 peptide: YLQPRTFLL

T2: A*01/LTD peptide on A*01/LTD (human)
T2 peptide: LTDEMIAQY

T3: A*24/QYI peptide on A*24/QYI (human)
T3 peptide: QYIKWPWYI


Target: T1, A*02/YLQ peptide on A*02/YLQ
Experiment: activation reporter or marker

Row | Binder | binding result
1 | 10749 (TCR) alpha TRAV12-1 TRAJ20 CDR3: CVVNKEDKLSF beta TRBV20-1 TRBJ2-2 CDR3: CSARDLLAANTGELFF | recognises
2 | 7411 (TCR) alpha TRAV12-1 TRAJ45 CDR3: CVVNRADGLTF beta TRBV12-3 TRBJ2-2 CDR3: CASTDGNTGELFF | recognises
3 | 9973 (TCR) alpha TRAV39 TRAJ54 CDR3: CAVDSSFQGAQKLVF beta TRBV6-2 TRBJ2-7 CDR3: CASSLPDSYEQYF | no recognition
4 | 9825 (TCR) alpha TRAV12-1 TRAJ43 CDR3: CVVNELDDMRF beta TRBV5-1 TRBJ2-2 CDR3: CASAGPNTGELFF | recognises
5 | 6688 (TCR) alpha TRAV12-1 TRAJ36 CDR3: CVVNKEDNLFF beta TRBV9 TRBJ2-2 CDR3: CASSGGIETSGNTGELFF | recognises
6 | 6579 (TCR) alpha TRAV12-1 TRAJ10 CDR3: CVVNSPEGGGNKLTF beta TRBV7-2 TRBJ1-1 CDR3: CASSSLNSLEAFF | recognises
7 | 3695 (TCR) alpha TRAV12-1 TRAJ20 CDR3: CVVNWYDYKLSF beta TRBV30 TRBJ2-2 CDR3: CAWINDQNTGELFF | recognises
8 | 5766 (TCR) alpha TRAV12-1 TRAJ43 CDR3: CVVNMYDDMRF beta TRBV5-1 TRBJ2-2 CDR3: CASIDSNTGELFF | recognises

Target: T2, A*01/LTD peptide on A*01/LTD
Experiment: activation reporter or marker

Row | Binder | binding result
9 | 99 (TCR) alpha TRAV5 TRAJ24 CDR3: CAERRGKLQF beta TRBV15 TRBJ2-5 CDR3: CATSRGPGGSKAGETQYF | recognises
10 | 1690 (TCR) alpha TRAV8-4 TRAJ10 CDR3: CAVSDLRVLTGGGNKLTF beta TRBV7-9 TRBJ2-1 CDR3: CASSLALAGRNYNEQFF | no recognition

Target: T3, A*24/QYI peptide on A*24/QYI
Experiment: activation reporter or marker

Row | Binder | binding result
11 | 84 (TCR) alpha TRAV8-3 TRAJ24 CDR3: CAVGLTDSWGKLQF beta TRBV5-8 TRBJ2-1 CDR3: CASSLAIRGIIDNEQFF | no recognition
12 | 96 (TCR) alpha TRAV38-1 TRAJ57 CDR3: CAFSPGGSEKLVF beta TRBV5-1 TRBJ2-7 CDR3: CASSLGRFLRGDWDYEQYF | no recognition
